From patent US20230028880A1, “CD38-BINDING AGENTS AND USES THEREOF” (Biohaven Therapeutics Ltd., priority 2019, published 2023)
Several values for one entry are separate records, joined by “and”; a condition that tells them apart may be missing. Identical values can stand only once. Bridges are numbered along the chain shown (N, C = ends). Roman numbers before positions name the chains, in order. Where no end group is shown, it is not given here. [ ]: non-standard residue; d: D form. branched linker from compound 8 (carries γGlu-hexadecanedioic acid) = not defined here; Bip = N[C@@H](Cc1ccc(-c2ccccc2)cc1)C(=O)O; Ahp(2) = CCCCC[C@H](N)C(=O)O

Legend:
CD38 (human) = CD38 (human) (UniProt P28907); test: ELISA; larger values represent binding
[1] = target: CD38 on Daudi cells (ATCC CCL-213) (human) (UniProt P28907); test: cell-based or functional assay
CD38 [2] = target: T1, CD38 (human, UniProt P28907 1-300); test: cell-based or functional assay
[3] = target: CD38 on Daudi cells (human) (UniProt P28907); test: ternary binding, flow cytometry: Daudi cells + PE human IgG1k
CD38 [4] = target: T1, CD38; test: ternary binding, flow cytometry: PE-labelled human IgG1k recruited to Daudi cells
Procedure: Various technologies can be utilized to assess and/or characterize recruitment of antibodies to target cells, e.g., cancer cells. One such assay is a ternary binding assay. An exemplary protocol is described herein. Compounds were diluted in DMSO (MP 191418) to 1000× the starting concentration used in the assay into a 96 well polypropylene plate (Corning 3357). They were then serially diluted in ½ log increments to generate 8-12 concentrations in DMSO (assay dependent). These DMSO stocks were then step diluted 1/100 into PBS (VWR Cat. #20012043). Step diluted compound range was then added into the polypropylene assay plate 1/10 the volume of the assay volume. […] The cells were then added into the polypropylene plate with the step diluted compounds and incubated at 37° C. for 30 min. At the end of the incubation, the cells were centrifuged and washed 2× with How buffer containing 0.5% Tween 20 (BP337-500). Samples were analyzed on a BD FacsCelesta. Mean fluorescence was analyzed using Graphpad Prism and curves were fit using log(inhibitor) vs. response—Variable slope (four parameters).

CD38 [5] = target: T1, CD38; test: cell-based or functional assay; remark: listed apart in the source

Molecule	% dead cells at 1 nM [1]	% dead cells at 3 nM [1]	% dead cells at 10 nM [1]	% dead cells at 30 nM [1]	% dead cells at 100 nM [1]	EC50 (nM), killing of target cells [1]	EC50 (nM), ADCC reporter cells (CD38 [2])	MFI at 0.03 nM [3]	MFI at 0.1 nM [3]	MFI at 0.3 nM [3]	MFI at 1 nM [3]	MFI at 3 nM [3]	MFI at 10 nM [3]	MFI at 30 nM [3]	MFI at 100 nM [3]	MFI at 300 nM [3]	MFI at 3000 nM [3]	IC50 (CD38 [4])	% dead cells at 300 nM [1]	MFI at 1000 nM [3]	further results
Ala Arg Ahp Tyr His Asp Gly Val Leu Bph Ahp Asp Cys (SEQ ID NO.1) (peptide)	–	–	–	–	–	–	–	–	–	–	–	–	–	–	–	–	–	–	–	–	Binding Assay (ELISA signal) (CD38 (human)): 1.97
Ala Leu His MePhe Val Leu Pro Bph Val Trp Val Cys (SEQ ID NO.2) (peptide)	–	–	–	–	–	–	–	–	–	–	–	–	–	–	–	–	–	–	–	–	Binding Assay (ELISA signal) (CD38 (human)): 1.69
I-27 (not fully specified; Cys2-Cys12 disulfide; N-terminus extended by D-Glu(side chain amide of 12-aminododecanoic acid)-PEG6-; X3 and X11 = Ahp ((S)-2-aminoheptanoic acid), X10 = Bph (4-biphenylylalanine); N-terminal -C(O)CH2- (from 2-bromoacetic acid) thioether-linked to S of Cys13; C-terminus carries PEG10 linker) peptide 1: ARXYHDGVLXXDC peptide 2: DCAWHLGELVWCT	5.6% and 5.7%	8.2% and 7.7%	7.9% and 8.3%	9.4% and 10.3%	10.3% and 9.1%	2.4 nM	3 nM	2140 and 3880	2880 and 2430	3560 and 3190	3130 and 2450	3950 and 3970	3320 and 9770	7880 and 8230	11500 and 10800	7180 and 11100	3940 and 5160	6 nM	–	–	–
I-39 (Cys2-Cys12 disulfide; N-terminus extended by hydrazinecarbonyl (urea from Boc-NH-NH2 and CDI)-PEG6-; X3 and X11 = Ahp ((S)-2-aminoheptanoic acid), X10 = Bph (4-biphenylylalanine); N-terminal -C(O)CH2- (from 2-bromoacetic acid) thioether-linked to S of Cys13; C-terminus carries PEG10 linker) peptide 1: ARXYHDGVLXXDC peptide 2: DCAWHLGELVWCT	15.7% and 16.5%	17.7% and 15.9%	22.4% and 21.4%	22.7% and 22.2%	23.4% and 25.4%	–	0.61 nM	5280 and 4130	6760 and 4610	–	4580 and 5160	6080 and 8740	5300 and 7840	9350 and 9460	16400 and 17300	12200 and 16900	10100 and 15000	3.3 nM	21.3% and 21.5%	9710 and 12000	% dead cells at 0.03 nM [1]: 11%; % dead cells at 0.3 nM [1]: 11.9% and 12.1%
I-40 (disulfide II:3-II:13; also: C-terminal Gly of chain 1 amide-bonded to N-terminal Gly of chain 2 (one chain), thioether at chain A 13 to a chain's N-terminus, The section is headed I-40, its product is called compound 523; also called compound 523) peptide 1: Ac-AR[Ahp(2)]YHDGVL[Bip][Ahp(2)]DCG peptide 2: GDCAWHLGELVWCT-NH2	–	–	–	–	–	1.9 nM	50 nM	819 and 477	956 and 1170	1150 and 1290	1100 and 966	900 and 1070	1950 and 1960	2160 and 2640	6090 and 6880	7340 and 7420	7330 and 6680	50 nM	–	7290 and 7250	–
I-32 (disulfide II:3-II:13; not fully specified (N-terminus); reading uncertain; also: N-terminus of chain 2 amide-bonded to the branched linker (one conjugate), thioether at chain A 13 to a chain's N-terminus via -C(O)-CH2- (from 2-bromoacetic acid), One covalent conjugate) peptide 1: {‑C(O)CH2‑}-AR[Ahp(2)]YHDGVL[Bip][Ahp(2)]DC-{branched linker from compound 8 (carries γGlu-hexadecanedioic acid)} peptide 2: DDCAWHLGELVWCT-NH2	14.4% and 13.5%	12.8% and 13.5%	13% and 13.3%	14.7% and 14.3%	17.7% and 17.2%	–	63 nM	–	–	1990 and 1770	2310 and 1770	1690 and 1630	2890 and 1820	4350 and 2820	13800 and 19500	26600 and 20600	23000 and 26100	88 nM	19.5% and 20.1%	28500 and 32400	% dead cells at 1000 nM [1]: 19.7% and 20.4%; % dead cells at 3000 nM [1]: 16.9% and 16.8%; RLU at 100 nM (CD38 [5]): 21800 RLU
I-33 (Cys2-Cys12 disulfide; N-terminus extended by PEG8-; X3 and X11 = Ahp ((S)-2-aminoheptanoic acid), X10 = Bph (4-biphenylylalanine); N-terminal -C(O)CH2- (from 2-bromoacetic acid) thioether-linked to S of Cys13; C-terminus carries PEG8 linker) peptide 1: ARXYHDGVLXXDC peptide 2: DCAWHLGELVWCT	–	–	23.4% and 22.3%	28.7% and 28.8%	32.8% and 31.3%	11 nM	4.3 nM	–	–	–	3470 and 3690	3660 and 1850	21100 and 13600	23700	31900 and 24200	24100 and 34300	28400 and 12400	9.3 nM	31.9% and 31.6%	17400 and 22200	% dead cells at 1000 nM [1]: 22.6% and 23.3%; % dead cells at 3000 nM [1]: 16.6%
